Paper PMC7264293, “Multi-site-mediated entwining of the linear WIR-motif around WIPI β-propellers for autophagy” (Nature Communications, 2020)

Target: GB1-tagged ATG2A short fragment (1374-1404), the WIR-peptide (UniProt Q2TAZ0)
Assay: ITC

GB1-tagged ATG2A short fragment (1374-1404), the WIR-peptide, sequence (Q2TAZ0 1374-1404): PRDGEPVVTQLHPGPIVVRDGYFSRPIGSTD
WIPI3-Δloop, Q5MNZ6 R62A, sequence (Q5MNZ6 other isoform, or with tags, fused parts or gaps R62A | mutant): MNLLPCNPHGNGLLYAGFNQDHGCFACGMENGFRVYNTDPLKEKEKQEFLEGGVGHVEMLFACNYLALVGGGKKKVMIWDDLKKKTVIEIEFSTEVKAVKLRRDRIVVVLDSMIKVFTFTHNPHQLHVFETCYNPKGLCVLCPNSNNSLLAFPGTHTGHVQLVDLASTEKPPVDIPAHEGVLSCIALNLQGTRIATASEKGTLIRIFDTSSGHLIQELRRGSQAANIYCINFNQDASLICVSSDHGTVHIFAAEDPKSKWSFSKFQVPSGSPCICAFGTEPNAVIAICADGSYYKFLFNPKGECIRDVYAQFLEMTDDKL
WIPI3-Δloop, Q5MNZ6 Y65A, sequence (Q5MNZ6 other isoform, or with tags, fused parts or gaps Y65A | mutant): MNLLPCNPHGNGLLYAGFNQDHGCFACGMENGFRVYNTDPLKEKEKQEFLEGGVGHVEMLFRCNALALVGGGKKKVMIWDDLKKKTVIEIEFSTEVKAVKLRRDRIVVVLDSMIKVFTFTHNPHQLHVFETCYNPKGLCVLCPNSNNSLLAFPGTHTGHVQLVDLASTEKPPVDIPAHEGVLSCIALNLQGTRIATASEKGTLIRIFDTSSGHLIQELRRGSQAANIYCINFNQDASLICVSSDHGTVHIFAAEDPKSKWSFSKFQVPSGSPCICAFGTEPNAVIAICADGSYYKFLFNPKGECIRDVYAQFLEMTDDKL
WIPI3-Δloop, Q5MNZ6 I96A, sequence (Q5MNZ6 other isoform, or with tags, fused parts or gaps I96A | mutant): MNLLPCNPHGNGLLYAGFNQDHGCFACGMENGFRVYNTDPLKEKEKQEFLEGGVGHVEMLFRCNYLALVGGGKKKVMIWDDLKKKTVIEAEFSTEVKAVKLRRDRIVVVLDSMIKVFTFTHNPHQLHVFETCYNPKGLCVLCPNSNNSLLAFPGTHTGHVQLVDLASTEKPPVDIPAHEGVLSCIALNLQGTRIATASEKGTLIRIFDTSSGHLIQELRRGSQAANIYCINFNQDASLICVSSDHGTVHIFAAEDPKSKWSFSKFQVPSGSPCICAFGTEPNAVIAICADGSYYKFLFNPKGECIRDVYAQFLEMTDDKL
WIPI3-Δloop, Q5MNZ6 R109Q, sequence (Q5MNZ6 other isoform, or with tags, fused parts or gaps R109Q | mutant): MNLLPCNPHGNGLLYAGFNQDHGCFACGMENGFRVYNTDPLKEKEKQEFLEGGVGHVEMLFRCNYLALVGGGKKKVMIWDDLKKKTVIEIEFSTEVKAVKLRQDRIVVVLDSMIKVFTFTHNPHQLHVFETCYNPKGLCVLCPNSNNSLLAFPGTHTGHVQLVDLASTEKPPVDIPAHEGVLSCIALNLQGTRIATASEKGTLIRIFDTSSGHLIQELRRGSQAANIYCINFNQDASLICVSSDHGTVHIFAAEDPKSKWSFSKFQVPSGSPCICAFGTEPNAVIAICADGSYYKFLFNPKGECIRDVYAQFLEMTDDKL
WIPI3-Δloop, Q5MNZ6 F125A, sequence (Q5MNZ6 other isoform, or with tags, fused parts or gaps F125A | mutant): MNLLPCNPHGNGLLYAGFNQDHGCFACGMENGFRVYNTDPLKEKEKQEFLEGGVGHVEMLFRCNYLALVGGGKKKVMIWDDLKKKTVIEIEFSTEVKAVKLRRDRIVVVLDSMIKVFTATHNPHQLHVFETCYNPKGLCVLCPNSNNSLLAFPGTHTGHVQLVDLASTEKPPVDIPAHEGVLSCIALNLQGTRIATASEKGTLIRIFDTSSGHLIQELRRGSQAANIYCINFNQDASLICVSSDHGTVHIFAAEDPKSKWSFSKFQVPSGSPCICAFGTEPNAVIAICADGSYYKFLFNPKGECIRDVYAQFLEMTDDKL
WIPI3-Δloop, Q5MNZ6 F98A, sequence (Q5MNZ6 other isoform, or with tags, fused parts or gaps F98A | mutant): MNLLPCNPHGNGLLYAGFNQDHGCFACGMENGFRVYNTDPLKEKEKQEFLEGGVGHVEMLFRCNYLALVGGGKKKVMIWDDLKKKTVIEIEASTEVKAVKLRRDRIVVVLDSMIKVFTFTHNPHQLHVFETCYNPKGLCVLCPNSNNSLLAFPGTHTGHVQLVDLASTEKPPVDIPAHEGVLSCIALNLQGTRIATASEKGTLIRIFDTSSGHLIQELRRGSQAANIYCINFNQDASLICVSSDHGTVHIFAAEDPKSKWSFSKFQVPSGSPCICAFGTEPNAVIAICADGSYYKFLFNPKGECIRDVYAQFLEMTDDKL

In the case of WIPI3-Δloop, Q5MNZ6 R109Q, the Kd is reported as 52.6 µM.
With WIPI3-Δloop, Q5MNZ6 R62A the Kd was 72.5 µM.
For WIPI3-Δloop, Q5MNZ6 F125A, the Kd was 244 µM.
WIPI3-Δloop, Q5MNZ6 F98A was tested, and the Kd was 31.6 µM.
WIPI3-Δloop, Q5MNZ6 Y65A gave a Kd of 76.1 µM.
With WIPI3-Δloop, Q5MNZ6 I96A the Kd was 40 µM.
